Legend:
Test in all cases: filter
[1] = target: ΔNS3 protein (NS3 protease domain) (Hepatitis C virus) (UniProt P26662); settings: 100 nM protein; 4.9 at 50 nM; 0.1 without protein; Tris pH 7.8, Mg2+, Ca2+
[2] = target: bovine serum albumin (BSA) (Bos taurus) (UniProt P02769); settings: 100 nM BSA
[3] = target: T1, myeloperoxidase (MPO) (Homo sapiens) (UniProt P05164); settings: 100 nM MPO; 2.66 at 50 nM; 1.49 without protein
T1 sequence: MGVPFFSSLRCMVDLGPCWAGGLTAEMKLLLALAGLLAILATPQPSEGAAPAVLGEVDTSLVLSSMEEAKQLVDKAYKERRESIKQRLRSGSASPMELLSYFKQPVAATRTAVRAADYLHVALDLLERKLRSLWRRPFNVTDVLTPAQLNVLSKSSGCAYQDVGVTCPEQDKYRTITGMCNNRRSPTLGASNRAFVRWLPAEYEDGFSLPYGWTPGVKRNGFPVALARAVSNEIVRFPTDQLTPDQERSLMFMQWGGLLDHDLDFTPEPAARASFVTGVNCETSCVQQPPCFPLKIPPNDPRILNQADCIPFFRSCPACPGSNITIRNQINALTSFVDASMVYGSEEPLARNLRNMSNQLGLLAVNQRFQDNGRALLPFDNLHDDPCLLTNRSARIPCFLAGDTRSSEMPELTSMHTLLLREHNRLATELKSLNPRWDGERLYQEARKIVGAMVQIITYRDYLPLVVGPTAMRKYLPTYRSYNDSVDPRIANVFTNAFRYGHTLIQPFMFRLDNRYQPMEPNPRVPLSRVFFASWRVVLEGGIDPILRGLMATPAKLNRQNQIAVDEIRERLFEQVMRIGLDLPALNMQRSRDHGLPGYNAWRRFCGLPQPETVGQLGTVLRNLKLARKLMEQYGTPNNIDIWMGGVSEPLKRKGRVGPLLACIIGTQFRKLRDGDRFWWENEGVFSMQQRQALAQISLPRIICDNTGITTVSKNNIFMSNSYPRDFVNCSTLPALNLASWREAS

bovine serum albumin (BSA) (Bos taurus), sequence (P02769 25-607): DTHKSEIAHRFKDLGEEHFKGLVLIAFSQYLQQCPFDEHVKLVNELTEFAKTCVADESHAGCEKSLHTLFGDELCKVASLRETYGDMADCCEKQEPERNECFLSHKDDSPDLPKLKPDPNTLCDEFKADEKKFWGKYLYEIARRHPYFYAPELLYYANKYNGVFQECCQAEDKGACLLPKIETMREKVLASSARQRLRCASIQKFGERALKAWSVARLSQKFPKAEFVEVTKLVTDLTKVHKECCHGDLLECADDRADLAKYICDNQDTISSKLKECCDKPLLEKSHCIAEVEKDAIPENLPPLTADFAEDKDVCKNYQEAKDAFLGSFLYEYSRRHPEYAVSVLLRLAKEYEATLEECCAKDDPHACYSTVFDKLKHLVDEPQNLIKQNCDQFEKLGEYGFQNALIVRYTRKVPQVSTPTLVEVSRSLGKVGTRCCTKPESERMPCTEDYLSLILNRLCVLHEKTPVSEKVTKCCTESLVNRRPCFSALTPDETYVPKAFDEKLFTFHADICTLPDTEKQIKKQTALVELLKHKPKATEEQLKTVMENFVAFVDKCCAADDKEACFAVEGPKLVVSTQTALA

Row | Sequence | binding signal [1] | binding signal [2] | binding signal [3]
1 | GGGAGGUGGAACUGAAGGAGANNNNNNNNNNNNNNNNNNNNNNNNNNNNNNNNNNNNNNNNNNNNNNNNNNNNNNNACUUCGCAAUCGCUCUACGCA [RNA pool (generation zero)] | 8.1 % bound |  | 
2 | GGUAGAUACGAUGGANNNNNNNNNNNNNNNNNNNNNNNNNNNNNNCAUGACGCGCAGCCA [RNA pool 2] |  | 1.86 % bound | 1.7 % bound
